Biological target: T1, PhyB(1-651)-AviTag-His6, biotinylated photosensory domain of A. thaliana phytochrome B (A. thaliana, UniProt P14713 1-651, biotin on the AviTag motif (~80% biotinylation); chromophore phycocyanobilin (PCB))
T1 construct: photosensory domain of phytochrome B (PhyB), A. thaliana, amino acids 1-651; Expected mass 74 kDa; also called PhyB-AviTag; source: E. coli BL21 Star (DE3), plasmid pMH1105 with HO1 and PcyA, purified (Ni-NTA IMAC, desalting); not shown: AviTag, C-terminal, kept
T1 sequence (looked up): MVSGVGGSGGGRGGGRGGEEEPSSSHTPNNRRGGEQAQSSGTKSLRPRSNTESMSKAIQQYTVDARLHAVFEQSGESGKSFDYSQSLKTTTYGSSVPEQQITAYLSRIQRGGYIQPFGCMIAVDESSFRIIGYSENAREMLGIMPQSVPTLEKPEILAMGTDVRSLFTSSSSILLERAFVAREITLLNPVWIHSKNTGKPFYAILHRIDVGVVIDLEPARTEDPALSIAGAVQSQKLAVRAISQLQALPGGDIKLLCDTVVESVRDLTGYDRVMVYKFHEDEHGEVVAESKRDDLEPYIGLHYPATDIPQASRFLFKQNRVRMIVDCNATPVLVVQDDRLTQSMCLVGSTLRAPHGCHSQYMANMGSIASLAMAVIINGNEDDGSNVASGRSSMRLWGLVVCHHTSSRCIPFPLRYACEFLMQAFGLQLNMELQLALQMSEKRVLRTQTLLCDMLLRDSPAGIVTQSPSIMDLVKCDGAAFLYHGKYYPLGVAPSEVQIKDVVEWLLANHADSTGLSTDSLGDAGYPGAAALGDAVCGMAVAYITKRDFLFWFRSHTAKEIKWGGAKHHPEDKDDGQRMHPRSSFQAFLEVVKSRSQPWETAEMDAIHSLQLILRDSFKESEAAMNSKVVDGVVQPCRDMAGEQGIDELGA
Assay: SEC; equimolar mixture of PhyB-AviTag (2.2 mg/ml) and GFP-PIF6 (1.2 mg/ml) in protein buffer (PBS, 0.5 mM TCEP), illuminated 3 min with 660 nm light (100 µmol/(m^2·s)), Superdex 200 Increase 10/300 GL run in the dark, 1 ml/min, absorbance at 280, 488 and 671 nm; never frozen and frozen-thawed proteins; compared with 740 nm illumination
Conditions: both partners purified

binding result: binds
B1: GFP-PIF6(1-100)-His6 (domain or fragment, A. thaliana, UniProt Q8L5W7 1-100, looked up)
chain: MMFLPTDYCCRLSDQEYMELVFENGQILAKGQRSNVSLHNQRTKSIMDLYEAEYNEDFMKSIIHGGGGAITNLGDTQVVPQSHVAAAHETNMLESNKHVD
notes: Expected mass 40 kDa; source: E. coli BL21 (DE3)pLysS, plasmid pHB111, purified as described for PhyB-AviTag (Ni-NTA IMAC, desalting); not shown: GFP, N-terminal, kept

Source: article PMC7842835, “Production, Purification and Characterization of Recombinant Biotinylated Phytochrome B for Extracellular Optogenetics” (Bio-protocol, 2020)
